The target in this assay is Polyketide synthase 13 (Pks13) of Mycobacterium smegmatis, endogenous, with native substrates bound (Mycobacterium smegmatis) (UniProt A0R617). As to the kind of experiment: SEC.

As to “Polyketide synthase 13 (Pks13) of Mycobacterium smegmatis, endogenous, with native substrates bound (from UniProt A0R617 1-1816) (enzyme)”, the stoichiometry N – broadly, the number of molecules, sites or subunits per partner or assembly – stood at 4.

For the origin of these results see article PMC10312659.
